Measurements published in patent US11578136B2, “Compositions and methods for treating cancer” (INNATE PHARMA, priority 2017, dated 2023).

What was measured:
[1] = molecular target: T1, CD39 expressed by Ramos human lymphoma cells (Homo sapiens, UniProt P49961); assay: Inhibition of the enzymatic activity of cellular CD39 in Ramos cells (Cell Titer Glo); type: cell-based
T1 construct: host or cells: Ramos human lymphoma cells
T1 sequence (P49961 1-510): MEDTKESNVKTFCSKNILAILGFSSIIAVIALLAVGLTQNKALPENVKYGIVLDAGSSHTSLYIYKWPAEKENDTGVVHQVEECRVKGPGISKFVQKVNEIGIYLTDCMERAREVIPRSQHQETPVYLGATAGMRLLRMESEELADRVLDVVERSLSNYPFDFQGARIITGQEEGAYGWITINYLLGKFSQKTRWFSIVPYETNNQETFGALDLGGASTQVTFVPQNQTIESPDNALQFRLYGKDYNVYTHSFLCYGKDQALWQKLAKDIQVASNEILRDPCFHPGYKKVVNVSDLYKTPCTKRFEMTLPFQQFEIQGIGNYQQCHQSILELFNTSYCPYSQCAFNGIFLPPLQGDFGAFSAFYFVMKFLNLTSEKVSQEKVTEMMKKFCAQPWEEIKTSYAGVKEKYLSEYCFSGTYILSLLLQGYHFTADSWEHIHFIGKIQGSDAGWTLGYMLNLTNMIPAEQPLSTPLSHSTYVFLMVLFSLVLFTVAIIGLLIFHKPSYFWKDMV
Method: The inhibition of the CD39 enzymatic activity in CD39-expressing cells by antibodies was evaluated using Cell Titer Glo™ (Promega, reference G7571) that allows assessment of ATP hydrolysis through use of a reagent that generates a luminescent signal proportional to the amount of ATP present. The assay was thus designed to permit assessment of the inhibition of ATP hydrolyzed by CD39 in the cell culture supernatant. Briefly, 5×10^4 Ramos human lymphoma cells, 5×10^3 human CD39-, cynomolgus CD39- and mouse CD39-expressing CHO cells, were incubated 1 hour at 37° C. with anti-CD39 antibodies from 30 μg/ml to […]. Cells were then incubated with 20 μM ATP for 1 additional hour at 37° C. Plates were centrifuged for 2 min at 400 g and 50 μl cell supernatant are transferred in a luminescence microplate (white wells). 50 μl CellTiter-Glo® Reagent (CTG) was added to the supernatant and emitted light was quantified after a 5 min incubation in the dark using a Enspire™ luminometer. Anti-CD39 antibody efficacy was determined by comparing emitted light in presence of antibody with ATP alone (maximal light emission) and ATP together with cells (minimal light emission).
The inhibition by antibody I-394 of the ATPase activity of CD39 in CD39-expressing cells was evaluated using the assay used for inhibition of the enzymatic activity of cellular CD39 as described above (Methods).

[2] = tested on: CHO cells expressing cynomolgus (Macaca fascicularis) CD39; assay: Antibody titration on CHO-cyCD39 by flow cytometry; type: binding; conditions: result in words
Method: (§1) Antibody I-394 was tested in two repeated experiments for binding to CHO cells expressing human CD39, CHO cells expressing cynomolgus (Macaca fascicularis) CD39, CHO cells expressing murine CD39, and human Ramos lymphoma cells (ATCC™, reference CRL-1596). Cells were incubated with various concentration of unlabeled anti-CD39 antibody from 30 μg/ml to 5×10^−4 μg/ml, for 30 minutes at 4° C. After washes, cells were incubated with Goat anti-mouse H+L labeled secondary antibody for 30 min at 4° C.

[3] = molecular target: T2, human Ramos lymphoma cells (CD39) (Homo sapiens, UniProt P49961); assay: Antibody titration on Ramos cells by flow cytometry; type: binding; conditions: result in words
T2 construct: host or cells: Ramos human lymphoma cells
T2 sequence (P49961 1-510): T1 sequence (P49961 1-510)
Method: as §1

[4] = molecular target: T3, Human CD39-L4 (NTPDase5, ENTPD5) (Homo sapiens, UniProt O75356); assay: ELISA titration on CD39-L4; type: binding; conditions: result in words
T3 sequence (O75356 25-428): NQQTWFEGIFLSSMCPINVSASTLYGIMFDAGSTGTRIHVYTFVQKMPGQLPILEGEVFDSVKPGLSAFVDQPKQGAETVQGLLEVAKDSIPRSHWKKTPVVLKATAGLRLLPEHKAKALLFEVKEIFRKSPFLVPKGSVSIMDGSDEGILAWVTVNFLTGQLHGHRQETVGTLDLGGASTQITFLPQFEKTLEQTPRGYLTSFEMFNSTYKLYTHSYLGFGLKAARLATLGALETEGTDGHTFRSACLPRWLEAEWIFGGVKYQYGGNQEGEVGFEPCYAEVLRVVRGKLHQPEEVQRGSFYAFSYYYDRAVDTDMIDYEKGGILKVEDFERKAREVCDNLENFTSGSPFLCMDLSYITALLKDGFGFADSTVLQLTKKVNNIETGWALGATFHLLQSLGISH
Method: (§2) Antibody I-394 was tested for binding to recombinant human CD39 isoforms (Rec-huCD39 isoforms) having amino acid sequences shown below were coated in 96-well plate in PBS 1× at 500 ng/ml or 1 μg/ml at 4° C. overnight. Wells were washed in TBS Tween 20, and further saturated 2H at RT in TBS Blocking buffer. Dose range concentration of primary antibody was incubated in TBS blocking buffer for 2 h at RT. Wells were washed in TBS Tween 20. […] Optical density was measured on Enspire™ at OD=450.

[5] = molecular target: T4, human CD39 (vascular isoform) (Homo sapiens, UniProt P49961); assay: ELISA titration on recombinant human CD39; type: binding; conditions: result in words
T4 sequence (P49961 1-510): T1 sequence (P49961 1-510)
Method: as §2

[6] = molecular target: T5, Human CD39-L1 (NTPDase2, ENTPD2) (Homo sapiens, UniProt Q9Y5L3); assay: ELISA titration on CD39-L1; type: binding; conditions: result in words
T5 sequence (Q9Y5L3 1-472 isoform Q9Y5L3-2): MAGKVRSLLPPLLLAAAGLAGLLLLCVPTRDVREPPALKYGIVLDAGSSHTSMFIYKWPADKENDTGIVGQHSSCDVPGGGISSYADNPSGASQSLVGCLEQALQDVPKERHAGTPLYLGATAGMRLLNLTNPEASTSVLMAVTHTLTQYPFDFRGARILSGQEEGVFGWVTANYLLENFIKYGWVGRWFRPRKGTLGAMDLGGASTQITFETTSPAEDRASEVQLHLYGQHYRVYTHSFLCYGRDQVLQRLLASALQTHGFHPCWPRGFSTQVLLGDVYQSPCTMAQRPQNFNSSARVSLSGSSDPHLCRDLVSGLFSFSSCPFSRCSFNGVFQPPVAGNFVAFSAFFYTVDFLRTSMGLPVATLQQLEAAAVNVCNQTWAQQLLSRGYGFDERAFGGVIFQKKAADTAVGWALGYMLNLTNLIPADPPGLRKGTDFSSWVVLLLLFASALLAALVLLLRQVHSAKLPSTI
Method: as §2

[7] = molecular target: T6, CHO cells expressing human CD39 (Homo sapiens, UniProt P49961); assay: Antibody titration on CHO-huCD39 by flow cytometry; type: binding; conditions: result in words
T6 construct: expressed in transfected cells; host or cells: CHO cells
T6 sequence (P49961 1-510): T1 sequence (P49961 1-510)
Method: as §1

I-394: anti-CD39 antibody, VH SEQ ID NO: 6, VL SEQ ID NO: 7; human IgG1 Fc with L234A/L235E/G237A/A330S/P331S
potency at blocking CD39 in Ramos cells compared to all other antibodies tested [1]: greater potency | maximum inhibition achieved, cellular CD39 ([1]; Ramos cells): 81.6% | blocking CD39 enzymatic activity in tumor (Ramos) cells ([1]; result in words): highly potent | binding to cells expressing cynomolgus CD39 (CHO-cyCD39) [2]: bound | binding to Ramos lymphoma cells [3]: bound | binding to CD39-L4 in ELISA [4]: not | binding to CD39 in ELISA [5]: bound | binding to CD39-L1 in ELISA [6]: not | binding to cells expressing human CD39 (CHO-huCD39) [7]: bound
